Experimental findings from the supplement of paper PMC10126150 are described below.

± gives the standard deviation of the averaged measurements.
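Further: ATP exposure 15 min at 22 °C before imaging.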

For this series, the system named is ATP. Description: switch fluorescence ratio, 500 uM ATP over buffer (Cy3 cluster intensity, sum of 5 cycles each) (fold (ratio)); higher = stronger signal-on switching upon ATP binding; sequences stand for … in TCGTCGGCAGCGTCAGATGTGTATAAGAGACAGTTTTTTTTTTTTTTTTTTTTTTTTT…TC. The settings on record: aptamer strand: ATP DNA aptamer (quencher-CACCTGGGGGAGTATTGCGGAGGAAGG + anchor), 100 nM annealed; ATP concentration: 500 uM. An outline of the steps: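 Cy3-labelled switching-strand clusters on a modified Illumina MiSeq flow-cell were annealed to 100 nM quencher-labelled ATP aptamer, imaged in selection buffer, then imaged after 15 min with 500 uM ATP at 22 °C. Five buffer/ATP cycles ran, with NaOH stripping and re-annealing between them. The fluorescence ratio is summed target-cycle over summed buffer-cycle Cy3 intensity per cluster, averaged per switch-domain sequence. Clusters outside 100-1000 RFU were excluded.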
GGATCTTGGG: the switch fluorescence ratio came out at 1.0038 ± 0.00073.

With ATGCATTGTT, the switch fluorescence ratio amounted to 1 ± 0.027.

On to AACAGTACAC, for which the switch fluorescence ratio was determined as 1.22 ± 0.023.

For TAGGGAAAGT, the switch fluorescence ratio turned out to be 0.9607 ± 0.0022.

For ACAGAGGGTT, the switch fluorescence ratio stood at 1.03 ± 0.045.

For CTGGGAATTG, the switch fluorescence ratio amounted to 1.05 ± 0.043.

For CGGGGGTTCA, the switch fluorescence ratio stood at 1.01 ± 0.035.

For TTTATAACCT, the switch fluorescence ratio is 1.7 ± 0.61.

As to TTCAATAGGG, the switch fluorescence ratio turned out to be 1.02 ± 0.036.

Turning to AATATTTTGA, the switch fluorescence ratio worked out at 1.02 ± 0.016.

As to TTTTTTCTCT, the switch fluorescence ratio was 0.994 ± 0.02.

For the sequence TAATGGAGGT, the switch fluorescence ratio was 0.979 ± 0.038.

On to TTAAGAACAA, for which the switch fluorescence ratio amounted to 1.02 ± 0.03.

With ACGCGGTGAC, the switch fluorescence ratio turned out to be 1.09 ± 0.025.

TTATAAATCT: the switch fluorescence ratio amounted to 1.008 ± 0.0092.

As to GTTTTTTGTT, the switch fluorescence ratio was 0.999 ± 0.043.

Turning to AACTATTAGA, the switch fluorescence ratio stood at 0.952 ± 0.018.

As to TTATGATGGG, the switch fluorescence ratio came out at 0.99 ± 0.017.

On to CCAATGGGAA, for which the switch fluorescence ratio came out at 1.01 ± 0.025.

As to TGCTTTTTAG, the switch fluorescence ratio was found to be 0.988 ± 0.029.

With AGGGGGGCCC, the switch fluorescence ratio was 1 ± 0.037.

On to CGGGGAGGTC, for which the switch fluorescence ratio was 1.07 ± 0.072.

GTGAGGTCGG: the switch fluorescence ratio came out at 0.968 ± 0.015.

With TATAATTGGT, the switch fluorescence ratio came to 0.9616 ± 0.007.

On to AGCATGAGTA, for which the switch fluorescence ratio was 1.01 ± 0.014.

On to TATATTGACC, for which the switch fluorescence ratio was found to be 1.04 ± 0.03.

For ATTAATTAGG, the switch fluorescence ratio came to 0.989 ± 0.015.

For the sequence CAGGAGTACA, the switch fluorescence ratio is 1.03 ± 0.012.

With AAAGGTACGA, the switch fluorescence ratio was found to be 1.02 ± 0.016.

In the case of CCATTGAATG, the switch fluorescence ratio turned out to be 1.02 ± 0.015.

Take ATGGTAGGCT: the switch fluorescence ratio stood at 0.98 ± 0.032.

Consider CCAGGAGGGG, for which the switch fluorescence ratio was found to be 1.04 ± 0.012.

Take AAGATTTTTG: the switch fluorescence ratio came to 1.01 ± 0.041.

On to GGGTTATCAC, for which the switch fluorescence ratio was found to be 0.984 ± 0.0095.

In the case of AGATGTTTGG, the switch fluorescence ratio was determined as 0.956 ± 0.027.

As to GGTTCTCAGT, the switch fluorescence ratio came to 0.988 ± 0.0097.

On to GTTACGGGGT, for which the switch fluorescence ratio amounted to 0.975 ± 0.024.

For the sequence AGTGCGGGGA, the switch fluorescence ratio was 0.993 ± 0.04.

Consider AGGGGGCTCG, for which the switch fluorescence ratio is 1 ± 0.024.

On to TAAATGAGGT, for which the switch fluorescence ratio was 0.998 ± 0.015.

Consider CAGCCCTTGA, for which the switch fluorescence ratio is 1.024 ± 0.0083.

On to CAGGGAAGCG, for which the switch fluorescence ratio came out at 0.991 ± 0.018.

As for TGGGTATCGG, the switch fluorescence ratio is 0.994 ± 0.021.

With TTAGGTTGTT, the switch fluorescence ratio stood at 1.01 ± 0.013.

Regarding CGGCATTTTT, the switch fluorescence ratio is 1.03 ± 0.036.

Take ATTAATAGCT: the switch fluorescence ratio was determined as 1.05 ± 0.0049.

Take ACTCGGGTGG: the switch fluorescence ratio is 1.019 ± 0.0096.

Turning to TCAATTTTTA, the switch fluorescence ratio was 1.02 ± 0.02.

CAAGATTGTT: the switch fluorescence ratio turned out to be 1.02 ± 0.017.

Take TAAATATTGG: the switch fluorescence ratio turned out to be 1.04 ± 0.034.

Consider ATCCAGGTTT, for which the switch fluorescence ratio is 1.1 ± 0.036.

As to TAAGCGGGAC, the switch fluorescence ratio came out at 2.88 ± 2.

ATAAGTACTC: the switch fluorescence ratio was determined as 1.28 ± 0.1.

Turning to ACGTTCAGGG, the switch fluorescence ratio was 1.05 ± 0.059.

As to TTCGATAGTT, the switch fluorescence ratio came to 1.89 ± 1.2.

Turning to CGGGGTGTGG, the switch fluorescence ratio is 1.01 ± 0.033.

For the sequence ACATCGGTTG, the switch fluorescence ratio is 0.976 ± 0.028.

GTCAGGGGTG: the switch fluorescence ratio came out at 1.04 ± 0.052.

In the case of AGGGGTGAGC, the switch fluorescence ratio amounted to 1.02 ± 0.072.

In the case of ACGCGCGTGT, the switch fluorescence ratio was 1.02 ± 0.017.

With GAGGGTTGCG, the switch fluorescence ratio stood at 0.973 ± 0.011.

AGTTTGTTCC: the switch fluorescence ratio turned out to be 1.02 ± 0.047.

As to GCGAATTAAT, the switch fluorescence ratio turned out to be 0.979 ± 0.033.

Take CGGAGGTTTG: the switch fluorescence ratio came out at 1.39 ± 0.62.

With GAGGTCATTG, the switch fluorescence ratio came out at 0.9996 ± 0.0018.

With CTAATGAGGG, the switch fluorescence ratio amounted to 1.02 ± 0.036.

As for CTCAATTCAA, the switch fluorescence ratio is 1.02 ± 0.015.

Regarding CATAAACGCG, the switch fluorescence ratio is 1.003 ± 0.0088.

Consider GGGCAGGGTT, for which the switch fluorescence ratio was determined as 0.999 ± 0.03.

As to ATTTGATGGG, the switch fluorescence ratio turned out to be 0.977 ± 0.03.

Regarding GAAAAGTGAG, the switch fluorescence ratio was found to be 0.975 ± 0.016.

On to TTGGCTAATA, for which the switch fluorescence ratio was found to be 1.01 ± 0.018.

Regarding TAAGCTTGTA, the switch fluorescence ratio was 1.01 ± 0.022.

For the sequence TTAGGCGTGG, the switch fluorescence ratio came out at 1.017 ± 0.006.

Consider GCGACCAGGC, for which the switch fluorescence ratio was determined as 1.14 ± 0.079.

On to ACTGTGGGGT, for which the switch fluorescence ratio worked out at 0.996 ± 0.022.

For AGCGTGAGGG, the switch fluorescence ratio was determined as 1.02 ± 0.018.

Consider TTGCAACTTT, for which the switch fluorescence ratio came to 1.12 ± 0.17.

As to TGTATATAGG, the switch fluorescence ratio was 0.955 ± 0.021.
